Results reported in the RNAGym collection of RNA variant scans (doi:10.7554/elife.90254).

B1: OR4K15 (parent)
chain: GUUAACGGUCAUAGGCCAUGGAAACUAGGAGCACCAUUUCGCUGCCAGUGAAGAAAUGAACAAAGAAAAUCUGGGCCAGGCAGGCAUCAAAAGAAAUAGUCUUGCGCUCAACCAGAAAGUCUGUAAUCAUUUUAAGGGUA

Variants of: B1
Assay: self-cleavage, relative activity (ratio to wild type); higher = more cleavage; in vitro, sequencing; the parent is a self-cleaving ribozyme

Variant	self-cleavage
GUUAACGGUCAUAGGCCAUGGAAACUAGGAGCACCAUUUCGCUGCCAGUGAGGAAAUGAACAAAGAAAAUCCGGGCCAGGCAGGCAUCAAAAGAAAUAGUCUUGCGCUCAACCAGAAAGUCUGUAAUCAUUUUAAGGGUA	0.27
GUUAACGGUCAUAGGCCAUGGAAACUAGGAGCACCAUUUCGCUGCCAGUGAGGAAAUGAACAAAGAAAAUCUGGGCCAGGCAGGCAUCAAAAGAAAUAGUCUUGCGCUCAACCAGAAAGUCUGUAAUCCUUUUAAGGGUA	0.65
GUUAACGGUCAUAGGCCAUGGAAACUAGGAGCACCAUUUCGCUGCCAGUGAGGAAAUGAACAAAGAAAAUCUGGGCCAGGCAGGCAUCAAAAGAAAAAGUCUUGCGCUCAACCAGAAAGUCUGUAAUCAUUUUAAGGGUA	1.33
GUUAACGGUCAUAGGCCAUGGAAACUAGGAGCACCAUUUCGCUGCCAGUGAGGAAAUGAACAAAGAAAAUCUGGGCCAGGCAGGCAUCAAAAGAAAUGGUCUUGCGCUCAACCAGAAAGUCUGUAAUCAUUUUAAGGGUA	0.8
GUUAACGGUCAUAGGCCAUGGAAACUAGGAGCACCAUUUCGCUGCCAGUGAGGAAAUGAACAAAGAAAAUCUGGGCCAGGCAGGCAUCAAAAGAAAUAGUCUUGAGCUCAACCAGAAAGUCUGUAAUCAUUUUAAGGGUA	0.02
GUUAACGGUCAUAGGCCAUGGAAACUAGGAGCACCAUUUCGCUGCCAGUGAGGAAAUGAACAAAGAAAAUCUGGGCCAGGCAGGCAUCAAAAGAAAUAGUCUUGCGCUCAACCAGAAAGUCUGUAAUCAUUUUAAGGGUG	1.63
GUUAACGGUCAUAGGCCAUGGAAACUAGGAGCACCAUUUCGCUGCCAGUGAGGAAAUGAACAAAGAAAAUCUGGGCCAGGCAGGCAUCAAAAGAAAUAGUCUUGCGCUCAACCAGAAAGUCUGUAAUCAUUUUAAGGGUU	1.15
GUUAACGGUCAUAGGCCAUGGAAACUAGGAGCACCAUUUCGCUGCCAGUGAGGAAAUGAACAAAGAAAAUCUGGGCCAGGCAGGCAUCAAAAGAAAUAGUCUUGCGCUCGACCAGAAAGUCUGUAAUCAUUUUAAGGGUA	0.17
GUUAACGGUCAUAGGCCAUGGAAACUAGGAGCACCAUUUCGCUGCCAGUGAGGAAAUGAACAAAGAAAAUCUGGGCCAGGCAGGCAUCAAAAGAAAUAGUCUUGCGCUCAACCAGAAAGUCUGUAAUAAUUUUAAGGGUA	0.64
GUUAACGGUCAUAGGCCAUGGAAACUAGGAGCACCAUUUCGCUGCCAGUGAGGAAAUGAACAAAGAAAAUCUGGGCCAGGCAGGCAUCAAAAGAAAUAGUCUUGCGCUCAACUAGAAAGUCUGUAAUCAUUUUAAGGGUA	0.14
GUUAACGGUCAUAGGCCAUGGAAACUAGGAGCACCAUUUCGCUGCCAGUGAGGAAAUGAACAAAGAAAAUCUGGGCCAGGCAGGCAUCAAAAGAAAUAGUCUUGCGCUCAACCAGCAAGUCUGUAAUCAUUUUAAGGGUA	0.11
GUUAACGGUCAUAGGCCAUGGAAACUAGGAGCACCAUUUCGCUGCCAGUGAGGAAAUGAACAAAGAAAAUCUGGGCCAGGCAGGCAUCAAAAGAAAUAGUCUUGCGCUCAACCAGGAAGUCUGUAAUCAUUUUAAGGGUA	0.91
GUUAACGGUCAUAGGCCAUGGAAACUAGGAGCACCAUUUCGCUGCCAGUGAGGAAAUGAACAAAGAAAAUCUGGGCCAGGCAGGCAUCAAAAGAAAUAGUCUUGCGCUCAACCAGAAAGUCUGUAAUCAUUUUAAGGUUA	2.54
GUUAACGGUCAUAGGCCAUGGAAACUAGGAGCACCAUUUCGCUGCCAGUGAGGAAAUGAACAAAGAAAAUGUGGGCCAGGCAGGCAUCAAAAGAAAUAGUCUUGCGCUCAACCAGAAAGUCUGUAAUCAUUUUAAGGGUA	0.39
GUUAACGGUCAUAGGCCAUGGAAACUAGGAGCACCAUUUCGCUGCCAGUGAGGAAAAGAACAAAGAAAAUCUGGGCCAGGCAGGCAUCAAAAGAAAUAGUCUUGCGCUCAACCAGAAAGUCUGUAAUCAUUUUAAGGGUA	1.31
GUUAACGGUCAUAGGCCAUGGAAACUAGGAGCACCAUUUCGCUGCCAGUGAGGAAAUGAACAAAGAAAAUCUGGCCCAGGCAGGCAUCAAAAGAAAUAGUCUUGCGCUCAACCAGAAAGUCUGUAAUCAUUUUAAGGGUA	0.13
GUUAACGGUCAUAGGCCAUGGAAACUAGGAGCACCAUUUCGCUGCCAGUGAGGAAAUGAACAAAGAAAAUCUGGGCCAGGCAGGCAUCAAAAGAAAUAGUCUUGCGCUCAACCAGAAAGUAUGUAAUCAUUUUAAGGGUA	2.07
GUUAACGGUCAUAGGCCAUGGAAACUAGGAGCACCAUUUCGCUGCCAGUGAGGAAAUGAACAAAGAAAAUCUGGGCCAGGCAGGCAUCAAAAGAAAUAGUCUUGCGCUCAACCAGAAAGUCUAUAAUCAUUUUAAGGGUA	0.48
GUUAACGGUCAUAGGCCAUGGAAACUAGGAGCACCAUUUCGCUGCCAGUGAGGAAAUGAACAAAGAAAAUCUGGGCCAGGCAGGCAUAAAAAGAAAUAGUCUUGCGCUCAACCAGAAAGUCUGUAAUCAUUUUAAGGGUA	1.78
GUUAACGGUCAUAGGCCAUGGAAACUAGGAGCACCAUUUCGCUGCCAGUGAGGAAAUGAACAAAGAAAAUCUAGGCCAGGCAGGCAUCAAAAGAAAUAGUCUUGCGCUCAACCAGAAAGUCUGUAAUCAUUUUAAGGGUA	0.11
GUUAACGGUCAUAGGCCAUGGAAACUAGGAGCACCAUUUCGCUGCCAGUGAGGAAAUGAACAAAGAAAAUCUGGGCCAGGCAGGCAUCAAAAGAAAUAGUCUUGCGCUCAAUCAGAAAGUCUGUAAUCAUUUUAAGGGUA	0.01

Variant	self-cleavage
GUUAACGGUCAUAGGCCAUGGAAACUAGGAGCACCAUUUCGCUGCCAGUGAGGAAAUGAACAAAGAAAAUCUGGGCCAGGCAGGCAACAAAAGAAAUAGUCUUGCGCUCAACCAGAAAGUCUGUAAUCAUUUUAAGGGUA	1.23
GUUAACGGUCAUAGGCCAUGGAAACUAGGAGCACCAUUUCGCUGCCAGUGAGGAAAUGAACAAAGAAAAUCUGGGCCAGGCAGGCACCAAAAGAAAUAGUCUUGCGCUCAACCAGAAAGUCUGUAAUCAUUUUAAGGGUA	1.35
GUUAACGGUCAUAGGCCAUGGAAACUAGGAGCACCAUUUCGCUGCCAGUGAGGAAAUGAACAAAGAAAAUCUGGGCCAGGCAGGCAUCAAAAGAAAUAGUCUUGCCCUCAACCAGAAAGUCUGUAAUCAUUUUAAGGGUA	0.02
GUUAACGGUCAUAGGCCAUGGAAACUAGGAGCACCAUUUCGCUGCCAGUGAGGAAAUGAACAAAGAAAAUCUGGGCCAGGCAGGCAUCAAAAGAAAUAGUCUUGCACUCAACCAGAAAGUCUGUAAUCAUUUUAAGGGUA	0.01
GUUAACGGUCAUAGGCCAUGGAAACUAGGAGCACCAUUUCGCUGCCAGUGAGGAAAUGAACAAAGAAAAUCUGGGCCAGGCAGGCAUCAAAAGAAGUAGUCUUGCGCUCAACCAGAAAGUCUGUAAUCAUUUUAAGGGUA	1.64
GUUAACGGUCAUAGGCCAUGGAAACUAGGAGCACCAUUUCGCUGCCAGUGAGGAAAUGAACAAAGAAAAUCUGGGCCAGGCAGGCAUCAAAAGAAAUAGUCUUGCGCUUAACCAGAAAGUCUGUAAUCAUUUUAAGGGUA	0.71
GUUAACGGUCAUAGGCCAUGGAAACUAGGAGCACCAUUUCGCUGCCAGUGAGGAAAUGAACAAAGAAAAUCUGGGCCAGGCAGGCAUCAAAAGAAAUAGUCUUGCGCUCAACCAGAAAGUCUGUAGUCAUUUUAAGGGUA	0.47
GUUAACGGUCAUAGGCCAUGGAAACUAGGAGCACCAUUUCGCUGCCAGUGAGGAAAUGAACAAAGAAAAUCUGGGCCAGGCAGGCAUCAAAAGAAAUAGUCUUGCGCUCAACCAGAGAGUCUGUAAUCAUUUUAAGGGUA	1.48
GUUAACGGUCAUAGGCCAUGGAAACUAGGAGCACCAUUUCGCUGCCAGUGAGGAAAUGAACAAAGAAAAUCUGGGCCAGGCAGGCAUCAAAAGAAAUAGUCUUGCGCUCAACCAGACAGUCUGUAAUCAUUUUAAGGGUA	0.47
GUUAACGGUCAUAGGCCAUGGAAACUAGGAGCACCAUUUCGCUGCCAGUGAGGAAAUGAACAAAGAAAAUCUGAGCCAGGCAGGCAUCAAAAGAAAUAGUCUUGCGCUCAACCAGAAAGUCUGUAAUCAUUUUAAGGGUA	0.13
GUUAACGGUCAUAGGCCAUGGAAACUAGGAGCACCAUUUCGCUGCCAGUGAGGAAAUGAACAAAGAAAAUCUGGGCCAGGCAGGCAUCAAAAGAAAUAGUCUUGCGCUCAACCAGAAUGUCUGUAAUCAUUUUAAGGGUA	0.59
GUUAACGGUCAUAGGCCAUGGAAACUAGGAGCACCAUUUCGCUGCCAGUGAGGAAAUGAACAAAGAAAAUCUGGGCCAGGCAGGCAUCAAAAGAAAUAGUCUUGCGCUCACCCAGAAAGUCUGUAAUCAUUUUAAGGGUA	0
GUUAACGGUCAUAGGCCAUGGAAACUAGGAGCACCAUUUCGCUGCCAGUGAGGAAAUGAACAAAGAAAAUCUGGGCCAGGCAGGCAUCAAAAGAAAUAGUCUUGCGCUCAGCCAGAAAGUCUGUAAUCAUUUUAAGGGUA	0.03
GUUAACGGUCAUAGGCCAUGGAAACUAGGAGCACCAUUUCGCUGCCAGUGAGGAAAUGAACAAAGAAAAUCUGGGCCAGGCAGGCAUCAAAAGAAAUAGUCUUACGCUCAACCAGAAAGUCUGUAAUCAUUUUAAGGGUA	0.04
GUUAACGGUCAUAGGCCAUGGAAACUAGGAGCACCAUUUCGCUGCCAGUGAGGAAAUGAACAAAGAAAAUCUGGGCCAGGCAGGCAUCAAAAGAAAUAGUCUUGCGCUCAACCAGAAAGUCUGUUAUCAUUUUAAGGGUA	0.86
GUUAACGGUCAUAGGCCAUGGAAACUAGGAGCACCAUUUCGCUGCCAGUGAGGAAAUGAACAAAGAAAAUCUGGGCCAGGCAGGCAUCAAAAGAAAUAGUCUUGCGCUCAACCAGAAAGUCUGUGAUCAUUUUAAGGGUA	0.37
GUUAACGGUCAUAGGCCAUGGAAACUAGGAGCACCAUUUCGCUGCCAGUGAGGAAAUGAACAAAGAAAAUCUGGGCCAGUCAGGCAUCAAAAGAAAUAGUCUUGCGCUCAACCAGAAAGUCUGUAAUCAUUUUAAGGGUA	0.12
GUUAACGGUCAUAGGCCAUGGAAACUAGGAGCACCAUUUCGCUGCCAGUGAGGAAAUGAACAAAGAAAAUCUGGGCCAGGCAGGCAUCAAAAGAGAUAGUCUUGCGCUCAACCAGAAAGUCUGUAAUCAUUUUAAGGGUA	2.12
GUUAACGGUCAUAGGCCAUGGAAACUAGGAGCACCAUUUCGCUGCCAGUGAGGAAAUGAACAAAGAAAAUCUGGGCCAGGCAGGCAUCAAAAGAUAUAGUCUUGCGCUCAACCAGAAAGUCUGUAAUCAUUUUAAGGGUA	1.37
GUUAACGGUCAUAGGCCAUGGAAACUAGGAGCACCAUUUCGCUGCCAGUGAGGAAAUGAACAAAGAAAAUCUGGGCCAAGCAGGCAUCAAAAGAAAUAGUCUUGCGCUCAACCAGAAAGUCUGUAAUCAUUUUAAGGGUA	0.27
